{"source": "the supplement of paper PMC10724198", "note": "± gives the standard deviation of the averaged measurements.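 Further: PSI is a weighted mean of sequencing reads over stability bins, variants kept only with over 10 reads, mCherry proximal and sfGFP distal, peptide attached via GGGS linker.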", "data": [{"system": "Saccharomyces cerevisiae", "assay": "protein stability index of tFT-peptide fusion (C-terminal peptide) (PSI (0-1 scale)); higher = more stable (slower turnover)", "details": "genetic background: wild type; temperature: 30 C", "procedure": "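Multiplexed protein stability (MPS) profiling in S. cerevisiae. Random 12-aa peptides (tFT-X12 library) are fused to the C-terminus of a sfGFP-mCherry tandem fluorescent timer, after mCherry and a GGGS linker. Cells are FACS-sorted into 8 mCherry/sfGFP bins and deep-sequenced. The protein stability index (PSI) is the read-weighted bin average, scaled from 0 (unstable) to 1 (stable). Only peptides with >10 reads are reported; cells were grown at 30 °C in SC-His with glucose.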", "values": [{"sequence": "DLMLSVDLNIDG", "protein stability index": "0.699 ± 0.0084"}, {"sequence": "DLRGDYCAGARV", "protein stability index": "0.685 ± 0.028"}, {"sequence": "DLRSQGWVALFH", "protein stability index": "0.663 ± 0.04"}, {"sequence": "DLSCVPSVNLGM", "protein stability index": "0.682 ± 0.075"}, {"sequence": "DLYLETSCSIGG", "protein stability index": "0.6723 ± 0.0032"}, {"sequence": "DLYPSVWVSIGP", "protein stability index": "0.721 ± 0.019"}, {"sequence": "DLYQRPPLPKFS", "protein stability index": "0.688 ± 0.036"}, {"sequence": "DMSVVCDRVLFD", "protein stability index": "0.733 ± 0.034"}, {"sequence": "DNKDRFRMFRVG", "protein stability index": "0.695 ± 0.095"}, {"sequence": "DNVVLVRQAAFI", "protein stability index": "0.618 ± 0.066"}, {"sequence": "DPCDVVQHPSAQ", "protein stability index": "0.657 ± 0.11"}, {"sequence": "DPPLPLSPLTHR", "protein stability index": "0.679 ± 0.05"}, {"sequence": "DPSQRRPDCCTY", "protein stability index": "0.729 ± 0.039"}, {"sequence": "DPVGRSSHQFFL", "protein stability index": "0.633 ± 0.026"}, {"sequence": "DPWPPPRTRTRT", "protein stability index": "0.682 ± 0.015"}, {"sequence": "DQEENKRTNGTR", "protein stability index": "0.7096 ± 0.0034"}, {"sequence": "DQIDGPCNSRTR", "protein stability index": "0.674 ± 0.023"}, {"sequence": "DQIWHPATRIMC", "protein stability index": "0.638 ± 0.071"}, {"sequence": "DQSLHAWSLRCT", "protein stability index": "0.771 ± 0.011"}, {"sequence": "DRDRVLLRGYRH", "protein stability index": "0.57134 ± 0.00013"}, {"sequence": "DRGSSRFTIGPK", "protein stability index": "0.676 ± 0.022"}, {"sequence": "DRHWLELVGLWS", "protein stability index": "0.75 ± 0.049"}, {"sequence": "DRLGQYSLIQRG", "protein stability index": "0.687 ± 0.022"}, {"sequence": "DRLSSPYTLFCY", "protein stability index": "0.571 ± 0.037"}, {"sequence": "DRRKRMLLLEHP", "protein stability index": "0.76 ± 0.054"}, {"sequence": "DRSQKINKKKKK", "protein stability index": "0.75 ± 0.017"}, {"sequence": "DRSRATRSPHIN", "protein stability index": "0.703 ± 0.023"}, {"sequence": "DRTQKIQNNKWM", "protein stability index": "0.622 ± 0.014"}, {"sequence": "DSDIIDYKMEII", "protein stability index": "0.722 ± 0.12"}, {"sequence": "DSGLVSRNLFLH", "protein stability index": "0.645 ± 0.18"}, {"sequence": "DSGYRQWGGTGR", "protein stability index": "0.714 ± 0.12"}, {"sequence": "DSILCVPCVYLY", "protein stability index": "0.629 ± 0.0084"}, {"sequence": "DSRTLDQNRAKF", "protein stability index": "0.824 ± 0.032"}, {"sequence": "DSSCLVWYRCGC", "protein stability index": "0.719 ± 0.083"}, {"sequence": "DSTGFRQNGQTD", "protein stability index": "0.73 ± 0.015"}, {"sequence": "DSTLCSCSLHTS", "protein stability index": "0.777 ± 0.12"}, {"sequence": "DSTVGRTLRTRR", "protein stability index": "0.617 ± 0.068"}, {"sequence": "DSVGVLVPRGFR", "protein stability index": "0.766 ± 0.045"}, {"sequence": "DTDRRWLGTFLV", "protein stability index": "0.534 ± 0.023"}, {"sequence": "DTLPSYPVHCRP", "protein stability index": "0.71 ± 0.014"}, {"sequence": "DTRRHSFCSGTG", "protein stability index": "0.697 ± 0.029"}, {"sequence": "DTSNRRFAYRRS", "protein stability index": "0.533 ± 0.12"}, {"sequence": "DTTTQPMSYEDP", "protein stability index": "0.669 ± 0.22"}, {"sequence": "DTYSEQRIVVTK", "protein stability index": "0.677 ± 0.012"}, {"sequence": "DVHNCSLQAAKK", "protein stability index": "0.691 ± 0.012"}, {"sequence": "DVLCALYFGRSK", "protein stability index": "0.707 ± 0.045"}, {"sequence": "DVLGLSSRPFRV", "protein stability index": "0.665 ± 0.015"}, {"sequence": "DVLSSVRGLTLL", "protein stability index": "0.678 ± 0.0082"}, {"sequence": "DVVWRVVNDSDL", "protein stability index": "0.712 ± 0.051"}, {"sequence": "DYLGGGARSEVD", "protein stability index": "0.745 ± 0.029"}, {"sequence": "EACVAAMTPKSL", "protein stability index": "0.657 ± 0.0083"}, {"sequence": "EADRAPSGGAGN", "protein stability index": "0.673 ± 0.013"}, {"sequence": "EAGAKEWGAKQT", "protein stability index": "0.7006 ± 0.007"}, {"sequence": "EAGVGSGGGRCG", "protein stability index": "0.673 ± 0.058"}, {"sequence": "EALTLLGAFYLP", "protein stability index": "0.694 ± 0.025"}, {"sequence": "EALVVLGVGFFG", "protein stability index": "0.651 ± 0.021"}, {"sequence": "EARLGVGRCGTG", "protein stability index": "0.67 ± 0.0098"}, {"sequence": "EAVVWGTLLCGG", "protein stability index": "0.694 ± 0.01"}, {"sequence": "ECAGVVRAKLPA", "protein stability index": "0.718 ± 0.05"}, {"sequence": "ECGLGGWGGLGV", "protein stability index": "0.657 ± 0.078"}, {"sequence": "ECIKVRGQWREI", "protein stability index": "0.662 ± 0.011"}, {"sequence": "EDCAGIFCQSVK", "protein stability index": "0.68 ± 0.015"}, {"sequence": "EDVPRGWACRGR", "protein stability index": "0.747 ± 0.024"}, {"sequence": "EECSYERRRTRE", "protein stability index": "0.8059 ± 0.0017"}, {"sequence": "EEGGTRGASAVV", "protein stability index": "0.7134 ± 0.0024"}, {"sequence": "EEKASKSSRLKK", "protein stability index": "0.699 ± 0.036"}, {"sequence": "EEQKAKQKQEYG", "protein stability index": "0.639 ± 0.077"}, {"sequence": "EERVEYHVALEV", "protein stability index": "0.664 ± 0.024"}, {"sequence": "EESAHPCRREVR", "protein stability index": "0.58988 ± 3.9e-05"}, {"sequence": "EESKEKKKNEEE", "protein stability index": "0.63584 ± 4.9e-05"}, {"sequence": "EEVVAQYCITLS", "protein stability index": "0.5864 ± 0.0021"}, {"sequence": "EFLGRVPNTQDG", "protein stability index": "0.668 ± 0.078"}, {"sequence": "EGAGSAPCMVQG", "protein stability index": "0.68 ± 0.026"}, {"sequence": "EGDGAVGKTRGD", "protein stability index": "0.691 ± 0.042"}, {"sequence": "EGEDRVEPGTQT", "protein stability index": "0.722 ± 0.045"}, {"sequence": "EGGERGSKIVDT", "protein stability index": "0.593 ± 0.029"}, {"sequence": "EGGILHKKFTKS", "protein stability index": "0.696 ± 0.025"}, {"sequence": "EGGKGGLVIVGG", "protein stability index": "0.709 ± 0.11"}, {"sequence": "EGGWRLVWGRGG", "protein stability index": "0.7222 ± 0.0024"}, {"sequence": "EGKNEFINGTTT", "protein stability index": "0.696 ± 0.023"}, {"sequence": "EGKPALANSTVR", "protein stability index": "0.712 ± 0.052"}, {"sequence": "EGLCFLICKERS", "protein stability index": "0.729 ± 0.025"}, {"sequence": "EGPEGRDVVRRY", "protein stability index": "0.644 ± 0.0096"}, {"sequence": "EGRRAVGRGRGR", "protein stability index": "0.672 ± 0.05"}, {"sequence": "EGRTQTLPSRVT", "protein stability index": "0.638 ± 0.05"}, {"sequence": "EGVWIVMFCGLL", "protein stability index": "0.504 ± 0.11"}, {"sequence": "EIAGKGFRLGEW", "protein stability index": "0.74 ± 0.052"}, {"sequence": "EIKNKENKLKKT", "protein stability index": "0.684 ± 0.03"}, {"sequence": "EILGFVFGFFFL", "protein stability index": "0.5711 ± 0.0016"}, {"sequence": "EIRPRPYLCERF", "protein stability index": "0.7253 ± 0.0064"}, {"sequence": "EISKKKKQTKRK", "protein stability index": "0.768 ± 0.12"}, {"sequence": "EIVTTEINKKTN", "protein stability index": "0.7115 ± 0.004"}, {"sequence": "EKEGPDRGECGL", "protein stability index": "0.682 ± 0.0089"}, {"sequence": "EKGRERREGGRK", "protein stability index": "0.749 ± 0.044"}, {"sequence": "EKKEKKETTDTE", "protein stability index": "0.693 ± 0.023"}, {"sequence": "EKKKEKKGKKRE", "protein stability index": "0.683 ± 0.029"}, {"sequence": "EKLVAERGMYAT", "protein stability index": "0.684 ± 0.041"}, {"sequence": "EKQKIIRSGCES", "protein stability index": "0.746 ± 0.16"}]}]}
